Our source for the Kd values is patent publication US20220332804A1 (CSL INNOVATION, published 2022).

Common to all, as to experiment: SPR, antibody captured, C2 as analyte;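 also: biacore at 37 °C, anti-C2 mAbs held by immobilised goat anti-human IgG, C2 alanine or serine mutants injected, double-referenced sensorgrams fitted to a 1:1 kinetic or steady-state model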
For one test, the target named is T1, human C2 Y328A (human, UniProt P06681 21-752).
T1 sequence: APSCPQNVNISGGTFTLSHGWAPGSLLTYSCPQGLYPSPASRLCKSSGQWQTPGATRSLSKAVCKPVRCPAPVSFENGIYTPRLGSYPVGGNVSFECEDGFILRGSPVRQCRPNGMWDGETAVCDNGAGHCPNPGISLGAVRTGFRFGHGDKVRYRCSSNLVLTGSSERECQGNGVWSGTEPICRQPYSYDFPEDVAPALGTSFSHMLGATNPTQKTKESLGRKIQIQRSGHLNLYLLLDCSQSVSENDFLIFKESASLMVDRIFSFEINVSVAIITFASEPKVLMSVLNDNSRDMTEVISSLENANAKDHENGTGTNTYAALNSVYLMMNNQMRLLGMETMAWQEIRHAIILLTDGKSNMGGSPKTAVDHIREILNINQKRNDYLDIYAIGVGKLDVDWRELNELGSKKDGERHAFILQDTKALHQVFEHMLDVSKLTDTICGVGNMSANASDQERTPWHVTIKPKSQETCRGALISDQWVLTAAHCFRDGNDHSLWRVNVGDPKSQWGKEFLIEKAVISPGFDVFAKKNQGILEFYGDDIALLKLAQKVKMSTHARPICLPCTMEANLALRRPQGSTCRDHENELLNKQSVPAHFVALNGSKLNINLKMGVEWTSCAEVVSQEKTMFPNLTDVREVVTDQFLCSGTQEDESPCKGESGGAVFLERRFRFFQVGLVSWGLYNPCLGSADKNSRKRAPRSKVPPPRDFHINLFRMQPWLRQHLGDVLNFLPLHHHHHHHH

The target of another test is T2, human C2 R434A (human, UniProt P06681 21-752).
T2 sequence: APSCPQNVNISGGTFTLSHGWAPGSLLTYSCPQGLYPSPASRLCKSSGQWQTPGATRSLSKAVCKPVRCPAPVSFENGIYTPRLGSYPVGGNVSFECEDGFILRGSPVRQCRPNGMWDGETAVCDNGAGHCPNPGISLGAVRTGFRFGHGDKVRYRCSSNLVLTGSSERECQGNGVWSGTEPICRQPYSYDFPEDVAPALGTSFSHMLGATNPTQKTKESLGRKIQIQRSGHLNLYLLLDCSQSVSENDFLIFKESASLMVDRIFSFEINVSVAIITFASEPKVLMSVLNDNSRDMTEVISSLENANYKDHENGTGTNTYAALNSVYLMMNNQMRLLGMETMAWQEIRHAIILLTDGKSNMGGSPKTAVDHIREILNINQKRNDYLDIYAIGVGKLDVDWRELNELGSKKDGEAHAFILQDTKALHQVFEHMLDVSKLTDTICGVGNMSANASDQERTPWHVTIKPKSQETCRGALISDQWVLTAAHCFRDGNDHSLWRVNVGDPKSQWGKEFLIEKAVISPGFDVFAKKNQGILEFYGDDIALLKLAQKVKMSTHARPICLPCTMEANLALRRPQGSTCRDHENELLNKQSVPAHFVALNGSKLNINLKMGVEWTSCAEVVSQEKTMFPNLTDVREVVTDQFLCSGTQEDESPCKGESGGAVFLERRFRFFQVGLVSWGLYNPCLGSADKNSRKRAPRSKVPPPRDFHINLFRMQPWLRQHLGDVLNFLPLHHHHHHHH

A further test deals with T3, human C2 E433A (human, UniProt P06681 21-752).
T3 sequence: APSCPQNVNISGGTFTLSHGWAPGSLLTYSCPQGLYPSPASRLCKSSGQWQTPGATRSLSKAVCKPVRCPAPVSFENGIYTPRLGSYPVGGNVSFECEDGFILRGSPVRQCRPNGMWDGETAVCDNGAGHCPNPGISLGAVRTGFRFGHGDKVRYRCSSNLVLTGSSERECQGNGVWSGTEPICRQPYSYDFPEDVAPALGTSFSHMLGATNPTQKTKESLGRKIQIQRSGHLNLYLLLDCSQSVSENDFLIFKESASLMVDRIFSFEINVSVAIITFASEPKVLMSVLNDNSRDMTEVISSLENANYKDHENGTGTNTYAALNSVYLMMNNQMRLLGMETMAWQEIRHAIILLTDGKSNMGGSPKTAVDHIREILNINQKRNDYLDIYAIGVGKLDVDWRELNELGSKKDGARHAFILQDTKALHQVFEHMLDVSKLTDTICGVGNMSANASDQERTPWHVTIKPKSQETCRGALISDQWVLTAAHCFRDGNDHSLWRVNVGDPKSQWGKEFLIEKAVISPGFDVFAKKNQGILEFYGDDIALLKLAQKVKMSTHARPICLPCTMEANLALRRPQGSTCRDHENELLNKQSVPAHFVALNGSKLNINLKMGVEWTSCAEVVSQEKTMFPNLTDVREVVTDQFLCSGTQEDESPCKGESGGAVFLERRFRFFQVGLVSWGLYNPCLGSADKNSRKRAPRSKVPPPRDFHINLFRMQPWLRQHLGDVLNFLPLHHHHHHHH

The target of the next test is T4, human C2 M452A (human, UniProt P06681 21-752).
T4 sequence: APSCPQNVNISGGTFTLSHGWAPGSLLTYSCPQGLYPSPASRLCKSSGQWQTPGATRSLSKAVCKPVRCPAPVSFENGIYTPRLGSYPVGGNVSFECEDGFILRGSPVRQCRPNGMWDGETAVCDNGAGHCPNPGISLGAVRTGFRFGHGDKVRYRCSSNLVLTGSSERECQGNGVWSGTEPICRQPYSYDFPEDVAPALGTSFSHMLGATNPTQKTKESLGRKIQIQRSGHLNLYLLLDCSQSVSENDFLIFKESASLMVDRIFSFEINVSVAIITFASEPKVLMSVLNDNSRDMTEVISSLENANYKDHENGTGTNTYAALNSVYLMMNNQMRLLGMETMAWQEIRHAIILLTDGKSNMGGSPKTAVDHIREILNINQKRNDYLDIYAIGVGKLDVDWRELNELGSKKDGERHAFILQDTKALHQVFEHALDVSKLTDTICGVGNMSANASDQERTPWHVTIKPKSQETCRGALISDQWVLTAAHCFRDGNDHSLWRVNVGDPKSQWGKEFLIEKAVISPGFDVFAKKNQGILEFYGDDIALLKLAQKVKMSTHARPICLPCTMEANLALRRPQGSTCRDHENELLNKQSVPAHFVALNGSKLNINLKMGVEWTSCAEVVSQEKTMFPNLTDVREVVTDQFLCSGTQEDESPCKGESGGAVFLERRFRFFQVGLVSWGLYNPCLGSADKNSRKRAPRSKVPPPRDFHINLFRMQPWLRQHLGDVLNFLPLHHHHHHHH

B1: RF16-242 (antibody, human IgG4 S228P, lambda, V domains shown)
VH: EVQLLQSGAEVKKPGESLKISCKGSGYSFTSYWIGWVRQMPGKGLEWMGIIYPGDSDTRYSPSFQGQVTISADKSISTAYLQWSSLKASDTAMYYCARRGHYGDYFDYWGQGTLVTVSS
VL: SYELTQPPSVSVSPGQTARITCSGDALPKKYAYWYHQKSGQAPVLVIYEDRRRPSEIPERFSGSSSGTMATLTITGAQVEDEGVYFCYSRDRAGNQRVFGGGTQLTVLG
notes: pH-dependent anti-C2 antibody from a phage display library
As a reminder, the Kd is the equilibrium constant for the complex coming apart. Regarding B1, the Kd was 45.4 nM with human C2 Y328A, 98.9 nM with human C2 R434A, 3 nM in the test with human C2 E433A and 5.3 nM with human C2 M452A.
